± gives the uncertainty stated by the source.
Assay: amyloid nucleation score (Sup35N fusion, yeast selection) (log enrichment); library NNK2; higher = more nucleation; inactive = no reads after selection
In short: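 Sup35N was fused to peptides of 20 random codons and expressed in psi-negative yeast, which were induced with 100 μM copper sulfate for 24 hours and then grown on medium lacking adenine and uracil for 7 days at 30°C. Plasmid inserts from input and output were sequenced on Illumina. The nucleation score is the DiMSum log enrichment of output over input reads, centred on the mode score of non-aggregating sequences. Sequences with under 100 input reads were left out, and random libraries had three technical output replicates.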

| Substance | amyloid nucleation score |
| --- | --- |
| VFSSYYRSKEFTCIVLLGL | -0.026 ± 0.33 |
| KYSCTLVPFLLARFDLGSWG | -0.112 ± 0.34 |
| IVCDWRTP | 0.614 ± 0.41 |
| ESLGEVKGYTSDPMVLVCFE | -0.167 ± 0.23 |
| QSVKLFNSPTSAELILGTKE | -0.982 ± 0.78 |
| YMADSPLELDSSMTDYLCPV | 4.18 ± 0.069 |
| TVAVRSPIT | -0.686 ± 0.44 |
| KDCISLDSIV | inactive |
| WVELVCPYSTYLLSFIASLS | 0.278 ± 0.54 |
| EVGVV | 0.622 ± 0.18 |
| CSWLLTH | -0.461 ± 0.48 |
| YYSISGISFWFSK | 8.381 ± 0.06 |
| SCAIELLVQNNSEHLRLITI | -0.266 ± 0.3 |
| SVYLGCRCHVMFVRLTVAFV | inactive |
| FVVLFLFYFEVFAVYKVSLG | inactive |
| PVIQYVTSG | -0.257 ± 0.5 |
| TQRVGGIRW | 0.105 ± 0.24 |
| VTFNALLGFLASICVITSRI | 3.16 ± 0.072 |
| KIRRPFEMRGSVRDRGCIVR | 0.938 ± 0.34 |
| SPALKPLGRMEYGVSGR | 0.072 ± 0.29 |
| CTHWLDPDFVL | -0.666 ± 0.79 |
| TDVTYRNVVVSSRKFSGNRN | 8.149 ± 0.073 |

| Substance | amyloid nucleation score |
| --- | --- |
| GTAPSDQRTSSCR | 0.989 ± 0.23 |
| DDVKDNVYGSVEALKPRSG | 0.467 ± 0.17 |
| VLLKLVDLWL | -0.017 ± 0.54 |
| CVFRHTVIYGLGAGW | 2.65 ± 0.14 |
| SKVFCTIFAWVVVE | 7.038 ± 0.033 |
| MSARECWTIRFPYRVIVWEV | 0.214 ± 0.74 |
| MVTTSSVSNADLNVDMWLEP | 1.01 ± 0.2 |
| VVRSHTLQNSALRCWSDG | 0.935 ± 0.39 |
| QGPHARRHPTFRHKLYVLVI | 3.54 ± 0.099 |
| LFSKDVSRTLGPACFICEGT | 2.78 ± 0.072 |
| SYSQGD | 0.674 ± 0.53 |
| RDSTVFKIYCWPYNN | 6.493 ± 0.05 |
| KHSWSIALV | 0.239 ± 0.65 |
| MSGEDSGCLWDCNVYSRLDV | -0.486 ± 0.74 |
| NLRWPIFNSWSSG | -0.553 ± 0.27 |
| IWRCNPG | 1.04 ± 0.68 |
| DSWFRPVLNFPCSRNANKSL | 1.95 ± 0.25 |
| IAKGPGALYRSKMRWSGFVL | -0.817 ± 1 |
| SYYFGPHWRVYTAFARFRI | inactive |
| IALFVGFLVDAKDEGIL | -0.419 ± 0.26 |
| DSFLKKCSLIRIQVRAVFVL | -1.14 ± 1 |
| CSYVNRLWVDSSVGHEEDAG | inactive |

| Substance | amyloid nucleation score |
| --- | --- |
| EGFEFCWINNMDWSMPWVTN | 5.08 ± 0.062 |
| WTWEKWESPHEDGSRRPIVG | 1.55 ± 0.18 |
| LNYYWRFMPGGIGITGSSLS | 1.72 ± 0.12 |
| DGPLSLNSIHFTWLRAMDKV | -0.297 ± 1.1 |
| HLGKASYREFSFFKGLGY | inactive |
| WWLKALPRVILARLVSRGQG | 0.458 ± 0.29 |
| FNLLARMIVYGIVLSQGKTG | -0.01 ± 0.63 |
| KASLDN | 0.018 ± 0.51 |
| LTLLYIWSKDAVRYLLGNMD | -1.09 ± 1.1 |
| GQSCHYCRMTLNIDFTDWVL | -0.228 ± 0.39 |
| CSIGLRCGNVMLPTEWVSNC | -0.763 ± 0.32 |
| YRPNN | 2.43 ± 0.14 |
| NSVFAGRRTRTSFP | 0.227 ± 0.62 |
| SLSGRLMNFYIMQNSIPTWW | 6.792 ± 0.041 |
| MYPIWNQCSSWNEVVLNGCR | 0.159 ± 0.4 |
| VFVFFGDKW | inactive |
| LYGHGSILVRTNGGISFRRN | -1.02 ± 1.1 |
| QSTWSHGFKGRSVWRGLTKG | 1.66 ± 0.36 |
| GAGLMALNLTHFVGGGLSTN | -0.179 ± 0.76 |
| GSAMF | inactive |
| ACGPQPETLSGLMSRGLLRR | 0.619 ± 0.64 |
| RMIYGSRRFDVDIFYFGIRN | 4.24 ± 0.074 |

| Substance | amyloid nucleation score |
| --- | --- |
| RSFRECQDCGMQMFISRRLV | 0.15 ± 0.18 |
| AYYYVLRFRCLFTFYPQLTA | -0.428 ± 0.39 |
| LDTARVNGDSYWSL | 3.57 ± 0.11 |
| AFDTTPKC | 0.275 ± 0.32 |
| LPCRFKKYALHNQSTTGFWI | -0.187 ± 0.65 |
| SSMDFVHCSWAVWHLGSFLC | -1.01 ± 0.78 |
| RGLISSVFVVMFDACGVIRC | 5.605 ± 0.035 |
| MTKRG | 0.187 ± 0.41 |
| THLWVNSFMIDPFRSESAAT | -0.499 ± 0.54 |
| PGTFFSLSKWWFIDGVTEPG | 0.178 ± 0.77 |
| NFVILLCKQN | 5.2 ± 0.053 |
| AISHQPLWLLCHVVHLFRNS | 0.279 ± 0.32 |
| LCTGTCDTSAHVSSIYKFRD | -0.712 ± 1.1 |
| TASIDKRVTGSSREWWRSRQ | 0.357 ± 0.66 |
| GESTWATVLACPSERRSCSR | 0.559 ± 0.33 |
| CECLRDESER | 2.1 ± 0.29 |
| CFIPLGVNFGDRTWLTVRIR | 0.357 ± 0.41 |
| ADNVGS | 3.71 ± 0.058 |
| LGQVTDLSILCSSDQSLMVC | -0.075 ± 0.26 |
| MWWFYGSILHRGDRT | 1.58 ± 0.23 |
